Laboratory results as given in PMC6706441, “B1 oligomerization regulates PML nuclear body biogenesis and leukemogenesis” (Nature Communications, 2019).
Changes are numbered by the printed parent chain. In names and notes the source's numbering stands. Several values for one entry are separate records, joined by “and”; a condition that tells them apart may be missing. Equal values may be shown once.

What was measured:
[1] = target: the molecule itself; experiment: AUC; sedimentation velocity of the gel filtration peaks; Beckman XL-1, 130,000 g, 20 °C, >12 h; 20 mM Tris, pH 8.0, 100 mM NaCl; SEDFIT continuous c(s) model
[2] = target: the molecule itself; experiment: crystal structure; vapor diffusion, protein 38 mg/ml; 30% PEG 6000, 1 M lithium chloride, 100 mM sodium acetate; Zn SAD; oligomers from the asymmetric unit and crystal packing
[3] = target: the molecule itself; experiment: cross-linking; 5 μg purified B1 with 0.05, 0.1, 0.2% (w/v) glutaraldehyde, on ice 30 min, 20 mM Hepes pH 7.4; 8–16% SDS-PAGE, coomassie
[4] = target: the molecule itself; experiment: cross-linking; 0.3 μg purified HA-PML(1–256) with increasing glutaraldehyde, on ice 30 min, 20 mM Hepes pH 7.4; 4–12% SDS-PAGE, anti-HA immunoblot
[5] = target: the molecule itself; experiment: SEC; gel filtration on a calibrated Superdex 200 column; 20 mM Tris, pH 8.0, 100 mM NaCl

B1: PML_(1–256) I122P/V123P (domain or fragment, UniProt P29590-1 1-256, looked up)
chain: MEPAPARSPRPQQDPARPQEPTMPPPETPSEGRQPSPSPSPTERAPASEEEFQFLRCQQCQAEAKCPKLLPCLHTLCSGCLEASGMQCPICQAPWPLGADTPALDNVFFESLQRRLSVYRQPPDAQAVCTRCKESADFWCFECEQLLCAKCFEAHQWFLKHEARPLAELRNQSVREFLDGTRKTNNIFCSNPNHRTPTLTSIYCRGCSKPLCCSCALLDSSHSELKCDISAEIQQRQEELDAMTQALQEQDSAFGA
notes: PML (TRIM19), residues 1-256, double mutant I122P/V123P; source: E. coli BL21 (DE3), purified (His-Trap, thrombin, Q, Phenyl, Superdex 200); not shown: SUMO (human), N-terminal, cleaved; His tag, N-terminal, cleaved
Question: Does B1 bind [1]?
Answer: binds

B2: PML B1-box, residues 120-168, wild type (domain or fragment, UniProt P29590 120-168, looked up)
chain: RQIVDAQAVCTRCKESADFWCFECEQLLCAKCFEAHQWFLKHEARPLAE
notes: PML (TRIM19) B1-box, residues 120-168; residues 120-167 are seen in the crystallographic monomer; Four molecules in the asymmetric unit; also called WT B1; source: E. coli BL21 (DE3), purified (His-Trap, thrombin, Q, Phenyl, S100); not shown: His tag, N-terminal, cleaved
Question: Does B2 bind [2]?
Answer: binds

B3: PML B1-box I122P/V123P (domain or fragment, UniProt P29590 120-168, looked up)
chain: B2 chain with I3P, V4P
notes: PML (TRIM19) B1-box, residues 120-168, double mutant I122P/V123P; PDB 6IMQ holds the wild-type parent; source: E. coli BL21 (DE3), purified (His-Trap, thrombin, Q, Phenyl, S100); not shown: His tag, N-terminal, cleaved
Question: Does B3 bind [3]?
Answer: binds

B4: PML RBCC fragment, residues 1-256 (RING, B1, B2 and a 20-residue coiled-coil), wild type (domain or fragment, UniProt P29590-1 1-256, looked up)
chain: B1 chain with P122I, P123V
notes: PML (TRIM19), residues 1-256: RING, B1-box, B2-box and a 20-residue coiled-coil; His tag lay between SUMO and PML; SUMO-His removed after thrombin digestion; Mixture of monomer, dimer, tetramer and N-mer in solution; also called PML_(1–256); RBCC_(1–256); source: E. coli BL21 (DE3), purified (His-Trap, thrombin, Q, Phenyl, Superdex 200); not shown: SUMO (human), N-terminal, cleaved; His tag, …
Question: Which “stoichiometry N” value [1] does the source give for B4 here?
Answer: 2 and 4

B5: HA-PML_(1–256) I122P/V123P (domain or fragment, UniProt P29590-1 1-256, looked up)
chain: B1 chain
notes: PML (TRIM19), residues 1-256, double mutant I122P/V123P; See note of m9; source: purified
Question: Does B5 bind [4]?
Answer: binds

B6: PML_(1–256) W157E (domain or fragment, UniProt P29590-1 1-256, looked up)
chain: B1 chain with P122I, P123V, W157E
notes: PML (TRIM19), residues 1-256, mutant W157E; source: E. coli BL21 (DE3), purified (His-Trap, thrombin, Q, Phenyl, Superdex 200); not shown: SUMO (human), N-terminal, cleaved; His tag, N-terminal, cleaved
Question: Does B6 bind [5]?
Answer: binds

B7: PML_(1–256) F158E (domain or fragment, UniProt P29590-1 1-256, looked up)
chain: B1 chain with P122I, P123V, F158E
notes: PML (TRIM19), residues 1-256, mutant F158E; source: E. coli BL21 (DE3), purified (His-Trap, thrombin, Q, Phenyl, Superdex 200); not shown: SUMO (human), N-terminal, cleaved; His tag, N-terminal, cleaved
Question: Does B7 bind [5]?
Answer: binds
